Results from patent publication US6680174.

Molecular target: mouse GDF-9 receptor on granulosa cells (mouse)
Assay: cell-based or functional assay

B1: recombinant mouse GDF-9, cleaved, mature, glycosylated form (21 kD) (ligand, UniProt Q07105 307-441, looked up)
chain: GQKAIRSEAKGPLLTASFNLSEYFKQFLFPQNECELHDFRLSFSQLKWDNWIVAPHRYNPRYCKGDCPRAVRHRYGSPVHTMVQNIIYEKLDPSVPRPSCVPGKYSPLSVLTIEPDGSIAYKEYEDMIATRCTCR
modifications: one N-linked oligosaccharide (single N-linked glycosylation site, Asn325)
B1 showed a COX-2 mRNA (RT-PCR) after 24 hours with 100 ng/ml GDF-9 of 50 fold, an HAS2 expression (RT-PCR) after 5 hours, 50 ng/ml and 100 ng/ml mGDF-9 against 10 ng/ml of 5 to 10 fold and an HAS2 expression (RT-PCR), granulosa cells cultured ~20 hrs with mGDF-9 media, against CHO control of 10 fold. For the same binder, the HAS2 mRNA (Northern blot, 4.8 kb and 3.2 kb forms) after 5 hours with 50 ng/ml GDF-9 was 9.7 fold, the LH receptor mRNA (RT-PCR) with 10 ng/ml FSH, control-treated against cells treated with 100 ng/ml GDF-9 was 30 fold and the cumulus expansion of oocytectomized complexes cultured 18 hours with 100 ng/ml GDF-9 (out of 44 complexes) was 40. The fold decrease in HAS2 expression without GDF-9 (0-24 hours) against the peak level induced by 100 ng/ml GDF-9 was 10 fold, the uPA RT-PCR band intensity at 5 hours, 100 ng/ml GDF-9, normalized to HPRT was 15 % of control and the uPA RT-PCR band intensity at 9 hours, 100 ng/ml GDF-9, normalized to HPRT was 9 % of control. The uPA mRNA (Northern blot) with 50 ng/ml GDF-9 was 40 % of control.
